Measured values published in publication PMC8298490, “Structure and function of an Arabidopsis thaliana sulfate transporter” (Nature Communications, 2021).

Columns and labels:
AtSULTR4;1 ΔSTAS = biological target: T1, AtSULTR4;1 ΔSTAS (Arabidopsis thaliana, UniProt Q9FY46); assay: […]SO4 uptake into proteoliposomes, […] min; format: biochemical; details: 13.3 µM 35SO4, pH 7.5 inside / 5.5 outside; labelled compound
T1 construct: gene SULTR4; STAS domain (residues 503-685) truncated, transmembrane domain only, C-terminal His6-tag cleaved by TEV, High Five insect cells, monomeric by SEC
T1 sequence (Q9FY46 1-502): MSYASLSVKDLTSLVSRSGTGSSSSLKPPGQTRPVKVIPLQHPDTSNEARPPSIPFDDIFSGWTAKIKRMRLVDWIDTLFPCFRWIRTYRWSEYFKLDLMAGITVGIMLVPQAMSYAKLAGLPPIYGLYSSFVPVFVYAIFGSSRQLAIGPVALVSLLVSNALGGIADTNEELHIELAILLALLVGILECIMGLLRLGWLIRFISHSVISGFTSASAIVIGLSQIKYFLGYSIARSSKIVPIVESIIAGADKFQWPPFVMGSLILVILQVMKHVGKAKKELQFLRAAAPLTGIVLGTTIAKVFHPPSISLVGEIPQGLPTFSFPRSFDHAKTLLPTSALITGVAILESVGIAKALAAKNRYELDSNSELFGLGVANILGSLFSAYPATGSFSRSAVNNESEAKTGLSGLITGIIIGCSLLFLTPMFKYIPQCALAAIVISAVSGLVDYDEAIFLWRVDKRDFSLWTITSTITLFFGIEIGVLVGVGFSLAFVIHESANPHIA

[1] = biological target: the molecule itself; assay: cryo-EM structure; AtSULTR4;1 in GDN, 20 mM MES pH 6.0, 150 mM Na2SO4, 5 mM BME; refined with C2 symmetry; overall resolution 2.8 Å
[2] = biological target: the molecule itself; assay: SEC; purified protein on SRT-3C SEC-300 column, 20 mM HEPES, 150 mM NaCl, 5 mM BME, 0.01% LMNG; elution profile compared with wild type

With `O=S(=O)(O)O` [SO4^2−] the “35SO4 uptake into proteoliposomes, 5 min” value (AtSULTR4;1 ΔSTAS) was “ΔSTAS retains a lower level of transport activity”.

B1: Arabidopsis thaliana sulfate transporter SULTR4;1 (AtSULTR4;1), wild type (natural protein, UniProt Q9FY46 24-685, looked up)
chain: SSLKPPGQTRPVKVIPLQHPDTSNEARPPSIPFDDIFSGWTAKIKRMRLVDWIDTLFPCFRWIRTYRWSEYFKLDLMAGITVGIMLVPQAMSYAKLAGLPPIYGLYSSFVPVFVYAIFGSSRQLAIGPVALVSLLVSNALGGIADTNEELHIELAILLALLVGILECIMGLLRLGWLIRFISHSVISGFTSASAIVIGLSQIKYFLGYSIARSSKIVPIVESIIAGADKFQWPPFVMGSLILVILQVMKHVGKAKKELQFLRAAAPLTGIVLGTTIAKVFHPPSISLVGEIPQGLPTFSFPRSFDHAKTLLPTSALITGVAILESVGIAKALAAKNRYELDSNSELFGLGVANILGSLFSAYPATGSFSRSAVNNESEAKTGLSGLITGIIIGCSLLFLTPMFKYIPQCALAAIVISAVSGLVDYDEAIFLWRVDKRDFSLWTITSTITLFFGIEIGVLVGVGFSLAFVIHESANPHIAVLGRLPGTTVYRNIKQYPEAYTYNGIVIVRIDSPIYFANISYIKDRLREYEVAVDKYTNRGLEVDRINFVILEMSPVTHIDSSAVEALKELYQEYKTRDIQLAISNPNKDVHLTIARSGMVELVGKEWFFVRVHDAVQVCLQYVQSSNLEDKHLSFTRRYGGSNNNSSSSNALLKEPLLSVEK
notes: A. thaliana SULTR4;1, codon-optimized gene (NCBI NM_121358.3); residues 1-69 and 645-685 are called the N- and C-termini and were not resolved; the model holds residues 70-644; Homodimer in the cryo-EM structure; also called WT; source: High Five (Trichoplusia ni) insect cells, baculovirus; purified (LMNG solubilisation, Talon cobalt resin, SEC); not shown: His6, C-terminal, cleaved
With B1 the “stoichiometry N” value [1] was 2.

B2: AtSULTR4;1 R550E (natural protein, Arabidopsis thaliana, UniProt Q9FY46 24-685, looked up)
chain: SSLKPPGQTRPVKVIPLQHPDTSNEARPPSIPFDDIFSGWTAKIKRMRLVDWIDTLFPCFRWIRTYRWSEYFKLDLMAGITVGIMLVPQAMSYAKLAGLPPIYGLYSSFVPVFVYAIFGSSRQLAIGPVALVSLLVSNALGGIADTNEELHIELAILLALLVGILECIMGLLRLGWLIRFISHSVISGFTSASAIVIGLSQIKYFLGYSIARSSKIVPIVESIIAGADKFQWPPFVMGSLILVILQVMKHVGKAKKELQFLRAAAPLTGIVLGTTIAKVFHPPSISLVGEIPQGLPTFSFPRSFDHAKTLLPTSALITGVAILESVGIAKALAAKNRYELDSNSELFGLGVANILGSLFSAYPATGSFSRSAVNNESEAKTGLSGLITGIIIGCSLLFLTPMFKYIPQCALAAIVISAVSGLVDYDEAIFLWRVDKRDFSLWTITSTITLFFGIEIGVLVGVGFSLAFVIHESANPHIAVLGRLPGTTVYRNIKQYPEAYTYNGIVIVRIDSPIYFANISYIKDRLEEYEVAVDKYTNRGLEVDRINFVILEMSPVTHIDSSAVEALKELYQEYKTRDIQLAISNPNKDVHLTIARSGMVELVGKEWFFVRVHDAVQVCLQYVQSSNLEDKHLSFTRRYGGSNNNSSSSNALLKEPLLSVEK
notes: A. thaliana SULTR4;1 (NCBI NM_121358.3) with the charge-reversal mutation R550E on helix alpha1 of the STAS domain; Made by QuikChange on the wild-type construct; source: High Five insect cells, baculovirus; purified following the same protocol as wild type; not shown: His6, C-terminal, cleaved
B2: binds [2].

B3: AtSULTR4;1 K353E (natural protein, Arabidopsis thaliana, UniProt Q9FY46 24-685, looked up)
chain: SSLKPPGQTRPVKVIPLQHPDTSNEARPPSIPFDDIFSGWTAKIKRMRLVDWIDTLFPCFRWIRTYRWSEYFKLDLMAGITVGIMLVPQAMSYAKLAGLPPIYGLYSSFVPVFVYAIFGSSRQLAIGPVALVSLLVSNALGGIADTNEELHIELAILLALLVGILECIMGLLRLGWLIRFISHSVISGFTSASAIVIGLSQIKYFLGYSIARSSKIVPIVESIIAGADKFQWPPFVMGSLILVILQVMKHVGKAKKELQFLRAAAPLTGIVLGTTIAKVFHPPSISLVGEIPQGLPTFSFPRSFDHAKTLLPTSALITGVAILESVGIAEALAAKNRYELDSNSELFGLGVANILGSLFSAYPATGSFSRSAVNNESEAKTGLSGLITGIIIGCSLLFLTPMFKYIPQCALAAIVISAVSGLVDYDEAIFLWRVDKRDFSLWTITSTITLFFGIEIGVLVGVGFSLAFVIHESANPHIAVLGRLPGTTVYRNIKQYPEAYTYNGIVIVRIDSPIYFANISYIKDRLREYEVAVDKYTNRGLEVDRINFVILEMSPVTHIDSSAVEALKELYQEYKTRDIQLAISNPNKDVHLTIARSGMVELVGKEWFFVRVHDAVQVCLQYVQSSNLEDKHLSFTRRYGGSNNNSSSSNALLKEPLLSVEK
notes: A. thaliana SULTR4;1 (NCBI NM_121358.3) with the charge-reversal mutation K353E on TM8 (core domain); Made by QuikChange on the wild-type construct; source: High Five insect cells, baculovirus; purified following the same protocol as wild type; not shown: His6, C-terminal, cleaved
B3: binds [2].

B4: AtSULTR4;1 D547R (natural protein, Arabidopsis thaliana, UniProt Q9FY46 24-685, looked up)
chain: SSLKPPGQTRPVKVIPLQHPDTSNEARPPSIPFDDIFSGWTAKIKRMRLVDWIDTLFPCFRWIRTYRWSEYFKLDLMAGITVGIMLVPQAMSYAKLAGLPPIYGLYSSFVPVFVYAIFGSSRQLAIGPVALVSLLVSNALGGIADTNEELHIELAILLALLVGILECIMGLLRLGWLIRFISHSVISGFTSASAIVIGLSQIKYFLGYSIARSSKIVPIVESIIAGADKFQWPPFVMGSLILVILQVMKHVGKAKKELQFLRAAAPLTGIVLGTTIAKVFHPPSISLVGEIPQGLPTFSFPRSFDHAKTLLPTSALITGVAILESVGIAKALAAKNRYELDSNSELFGLGVANILGSLFSAYPATGSFSRSAVNNESEAKTGLSGLITGIIIGCSLLFLTPMFKYIPQCALAAIVISAVSGLVDYDEAIFLWRVDKRDFSLWTITSTITLFFGIEIGVLVGVGFSLAFVIHESANPHIAVLGRLPGTTVYRNIKQYPEAYTYNGIVIVRIDSPIYFANISYIKRRLREYEVAVDKYTNRGLEVDRINFVILEMSPVTHIDSSAVEALKELYQEYKTRDIQLAISNPNKDVHLTIARSGMVELVGKEWFFVRVHDAVQVCLQYVQSSNLEDKHLSFTRRYGGSNNNSSSSNALLKEPLLSVEK
notes: A. thaliana SULTR4;1 (NCBI NM_121358.3) with the charge-reversal mutation D547R on helix alpha1 of the STAS domain; Made by QuikChange on the wild-type construct; source: High Five insect cells, baculovirus; purified following the same protocol as wild type; not shown: His6, C-terminal, cleaved
B4: binds [2].
